Laboratory results reported in the DeepSol protein solubility set.

Experiment: soluble on expression in E. coli; label from the status in PepcDB or PDB records

| Sequence | soluble on expression in E. coli |
| --- | --- |
| MSLELKVSLDNITMTAYIKSKKYLAMKQLIETHLAITVQTAMTDMFRATTGDGIHVVLHMNYDKQKGQDRKARPFRLEFNPNKLRLVDSEIIDTIIPFLEDISISRADLAFDLFEVDCSEFVLEKKGRPTATKEFRSSTGTLETKYLGAPRSEKQVRLYNKKKEQLQNGTDKDKDFASQFKHWWRLEFQLRSRSIDEIFEVIDTIIFKPFNLKGLSIETQIYLTALIHDKNIWKKLHRNTRARYKKILETHQTSDTDYLGLLKDLLKHERPRLENQLAYYGGRIDKNSFQPFCEGHHHHHH | soluble |
| MDLFSQFFQENQKKFLSFAYSYTRNKAAAEDILMEAMVSLWENREKWEKDSNLHALLLTIIKNKSLNYLEHEQVRMKAEEAINTHKQRELDLRISTLEACEPATIFDTEIQRIVYKTLEQLPEQSRHIFILSRYHNTPNKKIAEQLGISIKSVEFHITKTLKLLRLELKDYLISLLF | not soluble |
| MTVPDAKRLKDLELENSRLKKLLAESLLDIGALKVVTRGKGEPGSGAGGQEMQAQTDISERRACQLFRLSRSVLCHQPRTSVQNTELQAQLVELARASALWLSPPAHSAAACWCADQLQADLPAILSRRLDGEAAEAPPQGRGGVRMPEPAERTELGLVDGFRLRRAQHWATDQMPDGGR | not soluble |
| MGSDKIHHHHHHVTLDQLLMFRTVAEAGSLKAASNKLHKTQPAISQSIKQLESQLDLILFNREGYRLAITEQGRKLLQHTLRVLNEAQEMKQVAKHLAKGNEASITLAFEASFNLARILPILELTQNEFPYTQIILKQEFLTGALEALNQDKAEIIISAGGIEPIRSSHLELAYLFSGSLLDVAAPRLLSRYPNLSHVRELVNEYQIVIQDTGTGTANIEFGVQAGQRRWYVNDFYTKKMLIQSGMGWGKLPHYMIEDSLKQGALIALDLRERQNNIQLDYYVMRKPHSPLGPVAQALWQKLIAFSLS | not soluble |
| MAHHHHHHMYTWFHTSSHVFFVMEYCSNGDLFTYLNEHGPFAEKKVAEMLFEIIWAIRTCHDKRIAHLDLKPENVLVNHEEKCKLADFGLSAHIGSKHKKKGISHYRGTHDYWSPEQCARHQKKKQNFGEFDQKTDIWTLGILAFELKFGRPPFGSTNEERETVIMNRIQDYHWSQLFCEKMKQDLIDKLSPEFKDFLNLCLDKNPKKRPTAETLIQHPFIFLHNKSRPCIKSYATQPRGKQGPKLSHKGFNEQDGSFLTPIWFHNKG | not soluble |
| MAADESYPSVKERAFFQGLPFDYAVVFDNALIDRLFSRLRQERALVEDGLLARPDHRPWRLGALITEADTLDRRLSEQIRCLSGQSLPVASIALVTATTEAREAVSLWASVTCPPNVVVTPDPRAWMAEADLDLVVVFAPGALAHPGLFAALGRALQRDGADFAVWNHLLVRRRAEAPGQDITYLRCPDPTRQPVALAHMEAAGPAWAATPRLFETIKGDLGKALIGMARHPLSIALLRGKPKVVRLNEFLGACRVDSLGTPPWPRQSALVEAYGAALEDETFRLEIDPAHPTQPIRLTPRRRAHSIDIVINFRDKPELTLAAMGSIYAQTTTARVSLFLIDNQSTPAARAAIDAEAARAPAGIAVRVLSYDRPFNHSAQTNLGAAAGNGEALVFMSNDCALVDPGALDEMAAWALAPGVGTVGVRLETAEGRLACSGICALYPDHDFHPIVAEGFDQLGAGLNRETFANTFACACLARAVFRQAGPLDAIGFPIGLNDVDYCLRLRERGLRHLYLGAFLARHQALGSRPASDDGAQSAFLRQTYGHLLFDKEYMLEYDFLRQFTAAKLRQDIRSQRDKTTTVLEHHHHHH | not soluble |
| GHMREMLQVERPKLILDDGKRTDGRKPDELRSIKIELGVLKNADGSAIFEMGNTKAIAAVYGPKEMHPRHLSLPDRAVLRVRYHMTPFSTDERKNPAPSRREIELSKVIREALESAVLVELFPRTAIDVFTEILQADAGSRLVSLMAASLALADAGIPMRDLIAGVAVGKADGVIILDLNETEAMWGEADMPIAMMPSLNQVTLFQLNGSMTPDEFRQAFDLAVKGINIIYNLEREALKSKYVEFKEEGV | soluble |
| MSLSNDYPLVSIIIPTYNSSDYITETLTKLEKQTYPNFEIVIVNDGSKDNTSSVLREYGLTHSRLIIINKENGGVSSARNTGIRKAQGQFICFMDDDDEIDPNYLLKMYSRQHETGGDAIYCGLYGHHIKNGVTYSPINTDFNEGSLLFDFFYKKVRFHIGCLFIRKQLLEDNNLFFDEDLRLGEDLDFIYRLLITCDMYAVPYYMYKHNYRENSLMNSCRTITHYRHESFAHERIYSSVMQLYKGNRKEEIHTLLSKNRTYHKTRYLWNVLLNGDFELLNQLVESNEKELKDCNLLGKRDKRRAKILASKNYILWRMVRLVNRKKNKEGHHHHHH | soluble |
| MASRETILDVLAKLEECKETLNNSLNYDEAANSNGSSTFQDQSEIKIEHIAPNLVFENGTVPQEQSNSFQWYEEEVSNDACVSSNEYSGVKLCPFNIGFKSYNTPPDQMQQLDKSISDNMACRMNVDFSGIDRLIQHGSEDMRTVGYGMRGMMKLLQIQHEKLMGKKPDDVTTGLKASLVPARFLKEKTVIVRNLTDDADINVNKVFGQLTAQSSSLKNIVINAANVWIKNVVPDEQRKLYSTSIKPQQPQITFPAQLLNGPAGLLVRCLSVTGGDNSSNAVNISLLFKQHVSNLFNHARSKSGITNSRKRKQQSEDYSYN | not soluble |
| MESLKSNLFLTREAYLEAFETIMTPLKTAILTSEKPGVNFGSSGAVYDQQHAEMEALIRPLWGIGPYWVTCKDDVLRDAYVEKLIAGTDPSSPDYWGVIVDYDQYIVEAAALSLTLLLHKTYFWSCFSEKQQENIMVWLNKALGCKIPKNNWTFFKVLIRLALEGCGQVINQAELEEELALIECMYLGDGWYMDGKTTQRDYYISFAFHYYSLIYVKFMRERDPIRAKRFTERAVMFAQDYLYYFDEEGEALPYGRSQTYRFAQGAFFAALIFAEVEALPWGQIKTLLAKHLHCWMQQAIFTYDGRLSIGYHYENLVMAEGYNAPGSPYWAFKTFLLLAVDQDHPFWRAEPLAIKREEKRLEHHHHHH | not soluble |
| MSLAKELLIKNACVYDPLNGIEGEVMDIGVKDGKIVDPSEVDESKAKVIDAEGRLTMAGGVDIHAHVAGPKVNVGRIFRPEDSRRLQVAIKKLGTRSGTGFSVPSTTITGYLYAQMGYTTVMEAATPPLLTRHTHEEIRDTPILDEGAYTLMANNWILYEYIKEGELEKAAAYAAWLLRATKGFVIKMVNPGGTEAWGWGENVHSLDDPVPYFEITPAEIYQNYVKINEMLGLPHSIHIHPNLLGEPGNYEITTDSWDVIKKTGVEPNPEIGEREQVVHNTHVQFHSYGGDSWPTFESKAEEVAKYLNKNDHVTVDLGAVTLDETTTMTADGPLEWELQELTGFKWANYDVELETGSGVVPFIYSPKNPVHSVQWAIGLEIALLTENPWQVVISTDHPNAGPFIRYPRIIAWLMSEPYREEWIENVHPWVGQRAAIATIDREYTWTDITITTRAAPAKMLGLSDRIGHLGEGAYAHIAIYDIKPDEVDPSRDYEEVEKAMEQAWLVVKDGEIVVQEGVVVNEPVGRTYWVDVKVPEDLLEEVKKDLETKFRRYYSVNLGNYQVQDVYIPKEERIVIDARDRLSEGHHHHHH | soluble |
| MGSDKIHHHHHHLKAAIVTHLDQAPIYGDFPAPKPAPKQVLITVLASSVNQRVRSQADGSHYTKTPELPFIPGLDGVGRTSDGQLVYFLTRDPKFGALAEQTVTQQQLMFPLPEDADPAQIAASVNPAMAGWMALRVKAGQVVGKRVLVLGATGAAGTAAVQIAKTMGAAHVAGVGRNPDKLAALSDLGADTTVQLGDTAALAALPPADIVLDFLWGAPSATVMMTLLKARRDHAAKLIWIEIGGAAGPTLSLPAAALRSTGLTLVGSGQGSLTLADYQRELPALFTALTAGKFVTPTTVLSLSQVHDHWQDRGAARLVFQP | not soluble |
| MGSDKIHHHHHHMGTIWPDSLPQSKGAKYTLVADVIRKAIDTKELEVGVKLPPVRELAYKLGITPGTVARAYTILTDEGLLNAEVGRGTFVAPPKRPVLDDVWSRQLYLLDERDDDNVSLFSPRLADMGQVALIRECLQKVAQGDPAMFLNYPTRDAYAGVRQAVVDWMSDLSLGPLTADDIVLTHGGQSGLCVVFQTVFKGPKPVVLVEDLSYAGFRRAAELMRADVIGVRMDKWGIDPMSLDLTARQSPAQAICVSPEVQNPTGSRSPLERRKEVVEVARKHDLQIIEDDCYRMGEPQAPSYRALAPERGWHVSSVSKTLTPALRVGFAIAPEGQSAGLRRSAEYGYFGLAQPLAELTRLMLSDPRARDLARAVQRRMAEYVRVTVNTLGGFDLVWDSAVPFVWLRLPSGWRSAAFTRAAERAGVQVRSADEFALRDGRAPNAVRIAMNAHVSLERFETAMVRLRALLDNPPEQISV | not soluble |
| MGSDKIHHHHHHAQDKKKEFKMPTGYAGITHEMSEFYEPVPPVVTPGTDLKGGGFTAPSDAIVLFDGKDLSAWESVKGGAAEWDVHDGVFTVNKKKGDIQTKQKFNDFQMHIEWQVPTNITGESQSRGNSGIFLQGMYEVQVLDCYNNPTYVNGQTGSIYKQSIPLANAMRKPGEWNVYDIIYTAPTFKEDGSYRTHPTVTVIQNGVVLQNHTTILGTTEWIGFPQVKKHGAGPIILQSHGDPSEPISFRNIWIREL | not soluble |
| MSLGQRTSRTPDQLENVGVDQKLGATIPKDLSFQNEQGEPVRLSQYFDGSTPVMLTLNYHRCPQLCRIQLQKFTKSLSGMSWTAGDKFKVLTVDISPYEGPKMARKAQERYATFLDRPEETVDGWHFLTGNQAAIETLTDSVGFRYQPLPEKEKQFAHPTTIIFLSGDGTITRYFTTLDPAPGDLRTALVEASDGEGHHHHHH | soluble |
| MGHHHHHHSHMAHYLFNPFYLRLDCDLSKAYIHRIFASFYMEKEADAHTNEKRSKPMTQQYIVEPKKGLGLKLKKGQILKVVDVEGQQVADFVAYHAKDSYEHLDQGATIDAIHSIHVKVSDHLYSNPVLSRWLPLIEDTGPASMICCWPACRPDIEQALIWEAKRMSFRIRAMTICAVRLSSLAYRSPTCITHLRYCMDTVLDEEGNLSVETPLSDAGDYVRLRAEMDLIVAFSSCPRCNRDIQWRQCDIHTG | not soluble |
| MGSDKIHHHHHHMKISEVATPNFLLDLDQLEKNIDKIQQICTNNNKQLWPMLKTHKSTYIARLQKNAGASGFLVGTLDEGEALIKAGFEDIMLAYPYMGEVNINRIVTMASKINLICATDNIECAKAYSEAFSKSKIECKLLIIVDCGLHRFGVEPEKVVELATEISKLENIKIVGISSHPGQVYGCSSPEGVPDVCVQEDSSMEKAYKALTDNGFNIEIVASGSTPTVESEAACKTITAVRPGNYVYYDAIQIGLGCATEDMCALTVVCTVISKNSSGYYLIDCGSKCLGLDKGAHGNSSIVGYGRVCGHPELTIDSLSEEVGKIKVNGETDIKIGDRIRIIPNHSCSTANLTSNLLGFRGDTIEKVIEVDIRENSKQIIL | not soluble |
| MSLHSLTRIKVLQRRCTVFHSQCESILLRYQDEDRGLQAEEEAILEQIAGLKLLLDTLRAENRQLSREEIYTLLRKQSIVRRQIKDLELQIIQIQEKRSELEKKREEFQKKSKYWLRKEGNYQRWIIRQKRFYIQREIQQEEAESEEIIEGHHHHHH | soluble |
| MGSDKIHHHHHHVIALLKAYKFRLYPTKPQQEYFVKTFGCVRFVYNKMLEERIQLYEDSKLNPDAKQKLPTPAKYKPEFPFLKEVDSLSLANAQMDLNQAYQNFFRDQSVGFPKFKSKHNDRASYTTNNLKGSIRIEDRKVKLPKIGFVKLKQHRPFDGVIKSATVSMTKTRKFFISILVDQAEAQWVPAQNKVGIDLGLEHFAILTNDEWVSEKVANPRFLRKSEEKIKKAQRALSRKKIGSKNREKARIILAKKHEKIAHQRQDFLHKLSKRMVDDNQVIVVETLKSKNMMKNHKIAKSIGDVSWYGFVRQLEYKCAFYGRTLIKADQWYASTQICSSCGVKGEKKTIDVREWMCTCGAHHDRDINASINLLLLAD | not soluble |
